Results reported in patent US7629315B2, “Compositions for blocking the inhibitory effect of human CRP on human leptin” (University of Pittsburgh of the Commonwealth System of …, priority 2005, dated 2009).
Entries after “also recorded” stand apart in the source; their conditions may differ. One block for each molecule: values may come before it. [ ]: non-standard residue; d: D form.

Tests used:
human CRP = biological target: T1, human CRP (Homo sapiens, UniProt P02741); assay: Block of the inhibitory effect of human CRP on leptin-stimulated STAT3 phosphorylation in HEK-293 OB-Rb cells; assay type: cell-based; conditions: for restoration of leptin-stimulated STAT3 activation in the presence of human CRP: hexamer at concentrations as high as 0.8 μM, human CRP 8 μg/ml, human leptin 2 nM, 1-hour pre-incubation
T1 construct: purchased CHEMICON International
T1 sequence (P02741 19-224): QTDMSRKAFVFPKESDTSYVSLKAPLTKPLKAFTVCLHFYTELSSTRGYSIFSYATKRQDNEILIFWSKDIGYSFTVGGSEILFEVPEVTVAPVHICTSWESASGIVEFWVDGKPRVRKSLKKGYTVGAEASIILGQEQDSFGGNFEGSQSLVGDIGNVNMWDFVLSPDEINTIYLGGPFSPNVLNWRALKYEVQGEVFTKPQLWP
Experimental: In the in vitro experiment, Peptide-E was pre-incubated with human CRP for 30 minutes before being mixed with human leptin for an additional 45 minutes. The resultant mixture was then added to the HEK-293 cells overexpressing the long form leptin receptors, OB-Rb (FIG. 9). After a 30 minute incubation, the cells were harvested in a protein extraction buffer (Zhao, et al., 1997, PNAS). The signaling of leptin in the cells, measured by its ability to stimulate tyrosine phosphorylation on STAT3 in a western blot assay, was evaluated.
Using a design similar to the in vitro experiment described in Example 5, the hexamer of the '388 patent (SEQ ID NO:3) was pre-incubated with human CRP (8 μg/ml) and human leptin (2 nM) for 1-hour. The resultant mixture was then added to the HEK-293 cells overexpressing the long form leptin receptors, OB-Rb (FIG. 12). After a 30 minute incubation, the cells were harvested in a protein extraction buffer. The signaling of human leptin in the cells, measured by its ability to stimulate tyrosine phosphorylation on STAT3 in a western blot assay, was evaluated.

ob/ob mice = assay: Co-infusion of Peptide E with human CRP and leptin into ob/ob mice; assay type: in vivo, mouse; conditions: for restoration of leptin effect on body weight / restoration of leptin effect on food-intake: Pep-E 24 or 48 μg/day/mouse with human CRP 48 and leptin 12 μg/day/mouse
Experimental: FIG. 10. […] Infusion dosages for human CRP and leptin were 48 μg/day/mouse and 12 μg/day/mouse, respectively. The infusion rate for Pep-E (P) was 24 μg/day/mouse (medium dosage, abbreviated “m”) and 48 μg/day/mouse (high dosage, abbreviated “h”). Food-intake (FIGS. 10(A & C)) and body weight (FIGS. 10(B & D)) were monitored daily throughout the infusion. The arrows in A-D indicate the day of surgery. At the end of infusion, blood samples were collected for the measurement of blood-glucose, human CRP, and human leptin. The serum concentrations of human CRP and human leptin were 0.85±0.1 μg/ml and 18 ng±2 ng/ml, respectively. […] The glucose concentration from the mice infused with human CRP and leptin, but NOT with Pep-E was also shown.
In the in vivo experiment, the Peptide E polypeptide was co-infused through mini-osmotic pumps with human CRP and leptin into the ob/ob mice. Food-intake (24 hours) and body weight were followed during the infusion period (FIG. 10A-10D).

[1] = test system: leptin-induced tyrosine phosphorylation of STAT3; assay: Leptin-induced STAT3 tyrosine phosphorylation in HEK293 cells expressing OB-Rb (western blot), human leptin; assay type: cell-based; conditions: human leptin 2 nM, protein pre-incubated with leptin, HEK293 OB-Rb cells
Experimental: (§1) 2. Signaling Studies: A HEK293 cell line stably expressing the human long-form receptor, OB-Rb (M. Friedman-Einat et al., 2003, Regul. Pept. 111, 77) was serum starved for 2-h before addition of leptin and CRP. Leptin (SEQ ID NO:4), in the presence or absence of C-reactive proteins, was pre-incubated in μ-MEM for 30 minutes at 37° C. before applied to the cells. After a 30-incubation with leptin (SEQ ID NO:4), the cells were harvested in a previously described protein lysis buffer. A. Z. Zhao et al., 1997, Proc. Natl. Acad. Sci. U.S.A. 94, 322. The protein extract was subjected to a western blot assay with an anti-phospho-STAT3 specific antibody (Cell Signaling, Beverly, Mass.). For studies involving the primary hypothalamic neurons, the rat hypothalamus was surgically isolated right after euthanasia, and immediately placed in the DMEM for incubation with leptin in the presence or absence of CRP.
(§2) To determine if the interaction between CRP and leptin influences cellular actions of leptin, we assessed the ability of leptin to stimulate tyrosine phosphorylation of STAT3 and PI3-kinase activity in the presence of CRP in vitro.

mouse leptin = mouse leptin (Mus musculus, UniProt P41160); assay: Immunoprecipitation of rat CRP with mouse leptin; assay type: binding; conditions: leptin and CRP mixture and rat serum
Chain of mouse leptin (P41160 22-167): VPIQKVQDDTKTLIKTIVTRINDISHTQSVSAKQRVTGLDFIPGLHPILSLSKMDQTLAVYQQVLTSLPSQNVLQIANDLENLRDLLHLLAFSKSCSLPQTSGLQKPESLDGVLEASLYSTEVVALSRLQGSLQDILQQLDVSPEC
Experimental: Direct binding of […] and leptin in an immunoprecipitation assay was determined. Rat CRP was purified from fresh rat serum to >95% employing a previously established affinity-purification protocol. J. Tseng et al., 1988, Mol. Immunol. 25, 679. This purity is very similar to the human CRP preparation obtained from a commercial source (CHEMICON International). The purified human- and rat-CRP proteins were pre-mixed with recombinant human and mouse leptin, respectively, before addition of specific antibodies against human- and mouse-leptin. The concentrations of CRP and leptin in the precipitation reaction were all within the physiological ranges (M. B. Schulze et al., 2004, Diabetes Care 27, 889; T. Kazumi et al., 2003, Metabolism 52, 1113).
In parallel experiments, recombinant leptin was also pre-mixed with human- or rat serum to allow for potential direct interactions prior to immunoprecipitation. The precipitation pellets obtained were subjected to western blot assays with specific anti-CRP antibodies. […] Because of the similarities between rat CRP and human CRP in the binding to leptin and of our main interest in the relevance to human obesity, focus was placed on potential functional effects of human CRP in the subsequent experiments.

[2] = test system: insulin-stimulated PI3-kinase; assay: Insulin-stimulated PI3-kinase activity in differentiated 3T3-L1 adipocytes (specificity control); assay type: cell-based
[3] = test system: mouse leptin-induced STAT3 activation; assay: Leptin-induced STAT3 tyrosine phosphorylation in HEK293 cells expressing OB-Rb, mouse leptin; assay type: cell-based; conditions: murine leptin 2 nM
Experimental: as §1, §2

Molecule: NH2-S-C-H-L-P-W-COOH (H-SCHLPW-OH; listed as Homo sapiens) [SEQ ID NO:3, 6 amino acid polypeptide reported in U.S. Pat. No. 6,777,388 to Grasso, et al]
restoration of leptin-stimulated STAT3 activation in the presence of human CRP (human CRP): unable to block the negative effect of human CRP on the signaling capability of human leptin; also recorded: failed to restore leptin-stimulated STAT3 activation

Molecule: NH2—W—P—L—H—C—S—COOH (H-[dW][dP][dL][dH][dC][dS]-OH; SMILES CC(C)C[C@@H](NC(=O)[C@H]1CCCN1C(=O)[C@H](N)Cc1c[nH]c2ccccc12)C(=O)N[C@H](Cc1c[nH]cn1)C(=O)N[C@H](CS)C(=O)N[C@H](CO)C(=O)O; listed as Homo sapiens) [SEQ ID NO:5, D-form hex-peptide reported by Grasso, et al]
restoration of leptin-stimulated STAT3 activation in the presence of human CRP (human CRP): failed to restore leptin-stimulated STAT3 activation

Molecule: Peptide E: chemically synthesized polypeptide of 27 amino acids representing a segment of human leptin (SEQ ID NO:2) (LAFSKSCHLPWASGLETLDSLGGVLEA; listed as Homo sapiens)
restoration of leptin effect on body weight (ob/ob mice): could restore both of these functions of human leptin
restoration of leptin effect on food-intake (ob/ob mice): could restore both of these functions of human leptin
restoration of leptin effect on body weight (ob/ob mice; listed as Peptide-E): restored the physiological effects of human leptin
restoration of leptin effect on food-intake (ob/ob mice; listed as Peptide-E): restored the physiological effects of human leptin
restoration of leptin effect on blood glucose (ob/ob mice; end of infusion, high dosage of Pep-E 48 μg/day/mouse with human CRP and leptin): could restore the beneficial effect of human leptin on blood glucose
STAT phosphorylation by the peptide itself (human CRP; Peptide-E by itself): did not induce any changes in STAT phosphorylation

Molecule: human serum amyloid P-component (SAP): human serum amyloid P-component, control protein [reference compound]
effect on leptin-induced tyrosine phosphorylation of STAT3 [1]: did not significantly alter leptin-stimulated phosphorylation of STAT3

direct binding to mouse leptin (immunoprecipitation with anti mouse-leptin, anti-CRP western blot) (mouse leptin): could also bring down rat CRP
B1: rat CRP: rat C-reactive protein purified from fresh rat serum to >95% (protein)
chain: HEDMSKQAFVFPGVSATAYVSLEAESKKPLEAFTVCLYAHADVSRSFSIFSYATKTSFNEILLFWTRGQGFSIAVGGPEILFSASEIPEVPTHICATWESATGIVELWLDGKPRVRKSLQKGYIVGTNASIILGQEQDSYGGGFDANQSLVGDIGDVNMWDFVLSPEQINAVYVGRVFSPNVLNWRALKYETHGDVFIKPQLWPLTDCCES
effect on insulin-stimulated PI3-kinase activity [2]: did not block insulin-stimulated PI3-kinase
effect on mouse leptin-induced STAT3 phosphorylation [3]: attenuate the tyrosine-phosphorylation of STAT3; also recorded: higher concentrations of rat- than human-CRP are required to achieve the equivalent effects; also recorded: Attenuating effects
